Experimental findings from US20190144541A1 (BEIJING DONGFANG BIOTECH, published 2019) are described below.

In test [1] the target is T1, PD-1 (analyte in the BIAcore X100 assay) (UniProt Q15116 25-167, limits assumed).
T1 construct: also called Programmed Cell Death 1
Kind of test: SPR, BIAcore X100, antibody captured by anti-human IgG on CM5 chip, PD-1 as analyte. Here is the method:
The affinity of the antibodies were determined by ligand-capture method. Anti-human IgG was coupled to the surface of CM5 chip, and DFPD1-9, DFPD1-10, DFPD1-11, DFPD1-12 and DFPD1-13 were diluted respectively to ensure the capturing about 300 RU of the antibody by the anti-human IgG.
In general terms: SPR reads the build-up and loss of mass on a sensor chip optically.

The target in test [2] is T2, PD-1-His (UniProt Q15116 25-167, limits assumed).
T2 construct: also called antigen PD-1-His; not shown: His tag
The test is described as follows: ELISA on coated PD-1-His (60 ng/well), anti-human Fc-HRP. The protocol:
After washing five times with 300 μl/well PBST, the wells were blocked for two hours with 1% BSA-PBS at 37° C. Different dilution of the antibodies DFPD1-9, DFPD1-10, DFPD1-11, DFPD1-12 and DFPD1-13 were added. The highest concentration of these five kinds of antibodies is 16 μg/mL, diluted for 4 times to 11 gradients, and the last well was used as the negative control which was added PBS diluent only. After incubating at 37° C. for one hour, the wells were washed five times with 300 μL/well of PBST, then adding the anti-human Fc-HRP secondary antibodies diluted at 1:40000 with 1% BSA-PBS, incubating at 37° C. for one hour. After staining with TMB stain solution kit, 100 μL/well, for 8 minutes at room temperature, the reaction was stopped with 50 µL of 2 mol/L H₂SO₄/well, and the optical density was determined at 450 nm and 630 nm wavelength.
In general terms: ELISA stands for enzyme-linked immunosorbent assay.

Test [3] addresses T2, PD-1-His. The test is described as follows: competition ELISA: antibody premixed with 4 ug/mL PD1-His, added to coated PDL1-Fc, bound PD1-His detected with anti-His-HRP. The protocol: PDL1-Fc in pH9.6 carbonate buffer solution was used for coating plates at 4° C. for overnight. After washing five times with PBST, the wells were blocked for two hours with 1% BSA-PBS at 37° C. […] After incubating at 37° C. for one hour, the wells were washed five times with PBST, and then the mouse anti-His antibody HRP labeled with 1% BSA-PBS diluted were added. After incubating at 37° C. for one hour, the wells were stained with TMB stain solution kit, 100 μL/well, for 8 minutes at room temperature. The reaction was stopped with 50 µL of 10% H₂SO₄/well. The optical density was read at 450 nm and 630 nm wavelength. The result is shown in FIG. 16, DFPD1-9, DFPD1-10, DFPD1-11, DFPD1-12 and DFPD1-13 can inhibit the binding of PD-1 and PD-L1.

In another test the target is T3, PD-1 on PD1-CHO cells.
T3 construct: also called cell-surface PD-1
The test is described as follows: cell ELISA on fixed PD1-CHO cells, anti-human Fc-HRP. Here is the method: Firstly, the CHO cell line with stable PD-1 over-expression was made and named PD1-CHO. After coating 96-well plates with gelatin, PD1-CHO cells was digested by trypsin and then stopped. After centrifuging and suspending these cells, the cells were diluted to 2×10⁵ cells/mL, 100 μL per well in 96-well plates, totally 12 well×6 row, namely 2×10⁴ cells/well, and cultured at 5% CO₂, 37° C. overnight. The culture medium were discarded the next day, and the wells were washed one time with 350 μL precooling PBS. Freshly prepared 2% PFA was added to fix 5 minutes, and then PBS was used to wash two times.
The full-length anti-PD-1 antibody of double dilution was added into the cell plates, the diluent is PBS with 0.5% BSA. Sample concentration started from 100 μg/mL, diluting for 8 times, totally 12 gradients of dilution. After incubating for 30 minutes at room temperature, supernatant was discarded, and wells were washed three times with 350 μL pre-cooled PBS. The anti-human Fc-HRP Secondary antibodies diluted at 1:5000 were added, and incubated for 15 minutes at room temperature. After washing three times with 350 μL PBS, 100 μL TMB stain solution was added into each well, staining for 15 to 30 minutes at room temperature. After adding 50 μL2 mol/L H2504 per well to stop the staining, the optical density was read at 450 nm and 630 nm wavelength with the microplate reader.

Where a chain is given by its changes, count along the chain named.

T3 sequence (chain, as listed by the source limits assumed): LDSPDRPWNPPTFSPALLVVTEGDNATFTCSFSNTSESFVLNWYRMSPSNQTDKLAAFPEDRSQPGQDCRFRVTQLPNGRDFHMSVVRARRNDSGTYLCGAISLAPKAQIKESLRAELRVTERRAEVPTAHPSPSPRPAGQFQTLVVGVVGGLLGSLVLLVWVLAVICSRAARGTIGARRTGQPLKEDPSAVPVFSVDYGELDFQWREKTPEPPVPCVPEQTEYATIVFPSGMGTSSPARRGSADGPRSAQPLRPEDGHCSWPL
T1 sequence (Q15116 25-167 limits assumed): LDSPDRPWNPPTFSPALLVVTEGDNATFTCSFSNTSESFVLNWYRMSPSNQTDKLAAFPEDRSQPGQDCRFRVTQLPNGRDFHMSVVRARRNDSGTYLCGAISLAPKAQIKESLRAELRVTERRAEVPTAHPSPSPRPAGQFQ
T2 sequence (Q15116 25-167 limits assumed): as above

B1: DFPD1-9 full-length anti-PD-1 monoclonal antibody (antibody, human IgG4 S228P, kappa, V domains shown)
VH: QVQLVESGGGVVQPGRSLRLDCKASGITFSNYGMHWVRQAPGKGLEWVAVIWYDSSRKYYADSVKGRFTISRDNSKNTLFLQMNSLRAEDTAVYYCATNNDYWGQGTLVTVSS
VL: DIQMTQSPSSLSASVGDRVTITCRASQSIHNYLDWYQQKPGKAPKLLIYNASTRATGVPSRFSGSGSGTDFTLTISSLQPEDFATYYCQQELHLPLTFGQGTKVEIKR
notes: Expressed in HEK293E cells and purified on protein A
Usually Kd stands for the constant that tells how readily two partners part at equilibrium. Low values mean higher affinity, high ones lower affinity. The term koff denotes the rate constant with which the complex falls apart. Read a high koff as a short-lived complex. Usually kon stands for the rate constant with which the complex forms. Lower therefore signals slow association. Broadly, the EC50 (read off the curve) is the concentration giving half of the maximal effect. High values mean weaker potency, low ones greater potency. In test [1], B1 gave a dissociation constant (Kd) of 6.43 nM, a koff of 0.000105 s⁻¹ and a kon of 16300 M⁻¹ s⁻¹. For the same molecule, the “EC50 (read off the curve)” value with PD-1-His [2] is roughly 0.006 µg/mL. In addition, the “IC50 (read off the curve)” value with PD-1-His [3] was roughly 0.1 µg/mL. Further, the “EC50 (read off the curve)” value in the test with PD-1 on PD1-CHO cells is roughly 2 nM.

B2: DFPD1-10 full-length anti-PD-1 monoclonal antibody (antibody, human IgG4 S228P, kappa, V domains shown)
VH: B1 VH
VL: B1 VL with I29V, H30S, N50D, E91N, L92M, H93Q
notes: as for B1
In test [1], B2 displayed a Kd of 3.96 nM, an off-rate (koff) of 0.00013 s⁻¹ and a kon of 32800 M⁻¹ s⁻¹. Also, the half-maximal effective concentration (EC50 (read off the curve)) with PD-1-His [2] was roughly 0.007 µg/mL. Moreover, the “IC50 (read off the curve)” value in the test with PD-1-His [3] is roughly 0.1 µg/mL. In addition, the concentration for a half-maximal effect (EC50 (read off the curve)) in the test with PD-1 on PD1-CHO cells is roughly 0.9 nM.

B3: DFPD1-12 full-length anti-PD-1 monoclonal antibody (antibody, human IgG4 S228P, kappa, V domains shown)
VH: B1 VH with S55G, R57K
VL: B1 VL
notes: as for B1
In test [1], B3 displayed an equilibrium dissociation constant (Kd) of 22.4 nM, a koff of 0.000298 s⁻¹ and an on-rate (kon) of 13300 M⁻¹ s⁻¹. The “EC50 (read off the curve)” value with PD-1-His [2] was roughly 0.006 µg/mL. For the same molecule, the “IC50 (read off the curve)” value in the test with PD-1-His [3] was roughly 0.05 µg/mL. Besides, in the test with PD-1 on PD1-CHO cells, the 50% effective concentration (EC50 (read off the curve)) was roughly 2 nM.

B4: DFPD1-11 full-length anti-PD-1 monoclonal antibody (antibody, human IgG4 S228P, kappa, V domains shown)
VH: B1 VH with Y32N
VL: B1 VL
notes: as for B1
Turning to B4, in test [1], the Kd was 10.8 nM, the koff came to 0.000102 s⁻¹ and the on-rate (kon) stood at 9360 M⁻¹ s⁻¹. For the same molecule, in the test with PD-1-His [2], the “EC50 (read off the curve)” value was roughly 0.006 µg/mL. Moreover, in the test with PD-1-His [3], the “IC50 (read off the curve)” value was roughly 0.07 µg/mL. Besides, in the test with PD-1 on PD1-CHO cells, the half-maximal effective concentration (EC50 (read off the curve)) is roughly 4 nM.

B5: DFPD1-13 full-length anti-PD-1 monoclonal antibody (antibody, human IgG4 S228P, kappa, V domains shown)
VH: B1 VH with Y32N
VL: B1 VL with I29V, H30S, N50D, E91N, L92M, H93Q
notes: as for B1
In test [1], B5 registered a Kd of 9.5 nM, an off-rate (koff) of 0.000108 s⁻¹ and a kon of 18100 M⁻¹ s⁻¹. In addition, the “EC50 (read off the curve)” value with PD-1-His [2] was roughly 0.008 µg/mL. Further, in the test with PD-1-His [3], the “IC50 (read off the curve)” value was roughly 0.08 µg/mL. For the same molecule, in the test with PD-1 on PD1-CHO cells, the 50% effective concentration (EC50 (read off the curve)) was roughly 2 nM.
